The chains are these.
B1: equine IgG7 D312K mutant (antibody, part only; not given: variable domains, not shown: another chain or arm of the molecule)
constant: ASTTAPKVFPLASHSAATSGSTVALGCLVSSYFPEPVTVSWNSGALTSGVHTFPSVLQSSGLYSLSSMVTVPASSLKSQTYICNVAHPASSTKVDKKIVIKECGGCPTCPECLSVGPSVFIFPPKPKDVLMISRTPTVTCVVVDVGHDFPDVQFNWYVDGVETHTATTEPKQEQNNSTYRVVSILAIQHKKWLSGKEFKCKVNNQALPAPVQKTISKPTGQPREPQVYVLAPHRDELSKNKVSVTCLVKDFYPTDIDIEWKSNGQPEPETKYSTTPAQLDSDGSYFLYSKLTVETNRWQQGTTFTCAVMHEALHNHYTEKSVSKSPGK
B2: equine IgG7 Y436E mutant (antibody, part only; not given: variable domains, not shown: another chain or arm of the molecule)
constant: B1 constant with K191D, Y317E
B3: equine IgG7 Y436K mutant (antibody, part only; not given: variable domains, not shown: another chain or arm of the molecule)
constant: B1 constant with K191D, Y317K
B4: equine IgG7 D312N mutant (antibody, part only; not given: Variable domains, not shown: another chain or arm of the molecule)
constant: B1 constant with K191N
B5: equine IgG7 Y436C mutant (antibody, part only; not given: variable domains, not shown: another chain or arm of the molecule)
constant: B1 constant with K191D, Y317C
B6: equine IgG7 T286D mutant (antibody, part only; not given: Variable domains, not shown: another chain or arm of the molecule)
constant: B1 constant with T165D, K191D
B7: equine IgG7 D312Y mutant (antibody, part only; not given: variable domains, not shown: another chain or arm of the molecule)
constant: B1 constant with K191Y
B8: equine IgG7 Y436T mutant (antibody, part only; not given: variable domains, not shown: another chain or arm of the molecule)
constant: B1 constant with K191D, Y317T
B9: equine IgG7 Y436V mutant (antibody, part only; not given: Variable domains, not shown: another chain or arm of the molecule)
constant: B1 constant with K191D, Y317V
B10: equine IgG7 D312M mutant (antibody, part only; not given: variable domains, not shown: another chain or arm of the molecule)
constant: B1 constant with K191M
B11: equine IgG7 T286M mutant (antibody, part only; not given: variable domains, not shown: another chain or arm of the molecule)
constant: B1 constant with T165M, K191D
B12: equine IgG7 Y436R mutant (antibody, part only; not given: variable domains, not shown: another chain or arm of the molecule)
constant: B1 constant with K191D, Y317R
B13: equine IgG7 D312V mutant (antibody, part only; not given: variable domains, not shown: another chain or arm of the molecule)
constant: B1 constant with K191V
B14: equine IgG7 Y436F mutant (antibody, part only; not given: variable domains, not shown: another chain or arm of the molecule)
constant: B1 constant with K191D, Y317F
B15: equine IgG7 D312T mutant (antibody, part only; not given: variable domains, not shown: another chain or arm of the molecule)
constant: B1 constant with K191T
B16: equine IgG7 T286P mutant (antibody, part only; not given: variable domains, not shown: another chain or arm of the molecule)
constant: B1 constant with T165P, K191D
B17: equine IgG7 Y436I mutant (antibody, part only; not given: Variable domains, not shown: another chain or arm of the molecule)
constant: B1 constant with K191D, Y317I
B18: equine IgG7 D312P mutant (antibody, part only; not given: variable domains, not shown: another chain or arm of the molecule)
constant: B1 constant with K191P
B19: equine IgG7 D312W mutant (antibody, part only; not given: variable domains, not shown: another chain or arm of the molecule)
constant: B1 constant with K191W
B20: equine IgG7 Y436G mutant (antibody, part only; not given: variable domains, not shown: another chain or arm of the molecule)
constant: B1 constant with K191D, Y317G
B21: equine IgG7 T286E mutant (antibody, part only; not given: variable domains, not shown: another chain or arm of the molecule)
constant: B1 constant with T165E, K191D
B22: equine IgG7 T286K mutant (antibody, part only; not given: variable domains, not shown: another chain or arm of the molecule)
constant: B1 constant with T165K, K191D
B23: equine IgG7 T286C mutant (antibody, part only; not given: variable domains, not shown: another chain or arm of the molecule)
constant: B1 constant with T165C, K191D
B24: equine IgG7 T286I mutant (antibody, part only; not given: variable domains, not shown: another chain or arm of the molecule)
constant: B1 constant with T165I, K191D
B25: equine IgG7 Y436M mutant (antibody, part only; not given: variable domains, not shown: another chain or arm of the molecule)
constant: B1 constant with K191D, Y317M
B26: equine IgG7 Y436Q mutant (antibody, part only; not given: Variable domains, not shown: another chain or arm of the molecule)
constant: B1 constant with K191D, Y317Q
B27: equine IgG7 T286L mutant (antibody, part only; not given: Variable domains, not shown: another chain or arm of the molecule)
constant: B1 constant with T165L, K191D
B28: equine IgG7 D312S mutant (antibody, part only; not given: variable domains, not shown: another chain or arm of the molecule)
constant: B1 constant with K191S
B29: equine IgG7 T286A mutant (antibody, part only; not given: variable domains, not shown: another chain or arm of the molecule)
constant: B1 constant with T165A, K191D
B30: equine IgG7 Y436W mutant (antibody, part only; not given: Variable domains, not shown: another chain or arm of the molecule)
constant: B1 constant with K191D, Y317W
B31: equine IgG7 Y436S mutant (antibody, part only; not given: variable domains, not shown: another chain or arm of the molecule)
constant: B1 constant with K191D, Y317S
B32: equine IgG7 T286F mutant (antibody, part only; not given: variable domains, not shown: another chain or arm of the molecule)
constant: B1 constant with T165F, K191D
B33: equine IgG7 Y436N mutant (antibody, part only; not given: Variable domains, not shown: another chain or arm of the molecule)
constant: B1 constant with K191D, Y317N
B34: equine IgG7 Y436D mutant (antibody, part only; not given: Variable domains, not shown: another chain or arm of the molecule)
constant: B1 constant with K191D, Y317D
B35: equine IgG7 D312L mutant (antibody, part only; not given: variable domains, not shown: another chain or arm of the molecule)
constant: B1 constant with K191L
B36: equine IgG7 D312R mutant (antibody, part only; not given: Variable domains, not shown: another chain or arm of the molecule)
constant: B1 constant with K191R
B37: equine IgG7 T286G mutant (antibody, part only; not given: variable domains, not shown: another chain or arm of the molecule)
constant: B1 constant with T165G, K191D
B38: equine IgG7 T286H mutant (antibody, part only; not given: variable domains, not shown: another chain or arm of the molecule)
constant: B1 constant with T165H, K191D
B39: equine IgG7 D312Q mutant (antibody, part only; not given: variable domains, not shown: another chain or arm of the molecule)
constant: B1 constant with K191Q
B40: equine IgG7 Y436A mutant (antibody, part only; not given: Variable domains, not shown: another chain or arm of the molecule)
constant: B1 constant with K191D, Y317A

Changes are numbered by the printed parent chain. Numbers in names are those of the source.

The test addresses equine FcRn (large alpha subunit p51) in complex with equine beta-2-microglobulin (equine) (UniProt F6XZ61). Briefly: SPR (Biacore), pH 6. (In SPR one partner is held on a chip, and binding of the other changes the refractive index at the surface.)
UniProt F6XZ61, sequence (F6XZ61 entry or part of it, one chain of several): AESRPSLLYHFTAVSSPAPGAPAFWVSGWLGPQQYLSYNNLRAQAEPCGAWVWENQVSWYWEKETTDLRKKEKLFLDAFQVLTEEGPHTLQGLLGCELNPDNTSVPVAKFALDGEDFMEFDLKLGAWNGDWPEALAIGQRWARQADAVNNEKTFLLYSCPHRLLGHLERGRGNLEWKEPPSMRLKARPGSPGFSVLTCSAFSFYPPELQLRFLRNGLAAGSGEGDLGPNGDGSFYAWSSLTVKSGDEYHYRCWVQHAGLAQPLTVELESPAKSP
Broadly, the Kd is the free concentration of one partner at which half of the binding sites on the other are occupied at equilibrium, for simple one-to-one binding. Molecule B1 displayed a Kd of 16.4 nM.
To B2 belongs 13.4 nM; to B3, 74 nM.
Next, B4: 25.3 nM; B5: 12.5 nM.
Regarding B6, the Kd amounted to 47.5 nM.
The molecule B7 had a Kd of 9.4 nM.
Consider B8, for which the Kd worked out at 36.2 nM. This Kd is about 3.9-fold higher than that of the molecule before.
B9 registered a Kd of 6.7 nM. This Kd lies about 5.4-fold lower than the previous one.
For B10, the Kd came to 6.1 nM.
As to B11, the Kd stood at 19.3 nM.
To B12 belongs 7.7 nM; to B13, 11.3 nM.
Turning to B14, the Kd is 9.3 nM.
As for B15, the Kd worked out at 9.9 nM.
In the case of B16, the Kd was found to be 6.9 nM.
Molecule B17 returned a Kd of 25.1 nM.
B18 displayed a Kd of 8 nM. This Kd is about 3.1-fold lower than that of the molecule before.
To B19 belongs 13.2 nM; to B20, 51.7 nM; to B21, 35.5 nM.
To B22 belongs 20.6 nM; to B23, 84.4 nM; to B24, 15.8 nM.
To B25 belongs 5.5 nM.
Molecule B26 registered a Kd of 9.1 nM. Against the preceding molecule, the Kd is about 1.7-fold higher.
To B27 belongs 14 nM; to B28, 9.6 nM.
To B29 belongs 110 nM; to B30, 28.2 nM; to B31, 169 nM.
With B32, the Kd came out at 7.8 nM.
Take B33: the Kd worked out at 65.5 nM.
To B34 belongs 11.6 nM; to B35, 5.7 nM.
Turning to B36, the Kd stood at 9 nM.
To B37 belongs 18.2 nM.
B38 registered a Kd of 16 nM.
To B39 belongs 13.6 nM.
As to B40, the Kd was found to be 13.3 nM.

These data come from patent US20260070987A1.
